These results are taken from article PMC5704011.

The target of assay [1] is PDGFRα (Homo sapiens) (UniProt P16234). As to conditions: cited from earlier work.
Target sequence in this assay (P16234 24-528): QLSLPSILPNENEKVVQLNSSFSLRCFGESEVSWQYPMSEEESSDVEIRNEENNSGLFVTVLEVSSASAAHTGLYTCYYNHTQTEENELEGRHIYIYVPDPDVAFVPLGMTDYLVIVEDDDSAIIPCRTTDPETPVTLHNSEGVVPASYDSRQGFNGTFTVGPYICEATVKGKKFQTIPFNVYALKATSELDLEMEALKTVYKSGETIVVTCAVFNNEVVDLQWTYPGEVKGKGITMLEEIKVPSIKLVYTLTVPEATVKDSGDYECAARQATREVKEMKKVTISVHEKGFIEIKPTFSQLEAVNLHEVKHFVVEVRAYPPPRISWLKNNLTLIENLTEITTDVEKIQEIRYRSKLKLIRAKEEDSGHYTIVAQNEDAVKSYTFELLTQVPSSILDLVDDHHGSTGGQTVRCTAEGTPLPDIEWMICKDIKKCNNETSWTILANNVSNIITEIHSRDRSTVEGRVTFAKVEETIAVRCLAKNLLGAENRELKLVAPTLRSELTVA
Assay [2] has the same target. The note with it: cited from earlier work. This is another data set of the same source.
Target sequence in this assay (P16234 24-528): as above
In assay [3] the target is VEGFR1 (Homo sapiens) (UniProt P17948). As to the kind of experiment: SPR. The note with it: cited from earlier work.
In assay [4] the target is VEGFR2 (Homo sapiens) (UniProt P35968). As to the kind of experiment: SPR. The note with it: cited from earlier work.
The target in assay [5] is PDGFRα (Homo sapiens) (UniProt P16234). As to the kind of experiment: SPR; BIAcore 3000, 25 °C, CM5 chip; receptor immobilised by amine coupling (~200-500 R.U.); ligand injected at 10, 20 and 40 nM, 30 uL/min, 10 min dissociation; HBS-EP pH 7.4 (10 mM HEPES, 3 mM EDTA, 150 mM NaCl, 0.005% TWEEN-20); angiopoietin-4 reference cell subtracted; global 1:1 Langmuir fit; χ2-to-Rmax > 1.0 or negative association curves taken as no true interaction. On the technique in general: Surface plasmon resonance follows binding to a sensor surface in real time, without labels.
Target sequence in this assay (P16234 24-1089): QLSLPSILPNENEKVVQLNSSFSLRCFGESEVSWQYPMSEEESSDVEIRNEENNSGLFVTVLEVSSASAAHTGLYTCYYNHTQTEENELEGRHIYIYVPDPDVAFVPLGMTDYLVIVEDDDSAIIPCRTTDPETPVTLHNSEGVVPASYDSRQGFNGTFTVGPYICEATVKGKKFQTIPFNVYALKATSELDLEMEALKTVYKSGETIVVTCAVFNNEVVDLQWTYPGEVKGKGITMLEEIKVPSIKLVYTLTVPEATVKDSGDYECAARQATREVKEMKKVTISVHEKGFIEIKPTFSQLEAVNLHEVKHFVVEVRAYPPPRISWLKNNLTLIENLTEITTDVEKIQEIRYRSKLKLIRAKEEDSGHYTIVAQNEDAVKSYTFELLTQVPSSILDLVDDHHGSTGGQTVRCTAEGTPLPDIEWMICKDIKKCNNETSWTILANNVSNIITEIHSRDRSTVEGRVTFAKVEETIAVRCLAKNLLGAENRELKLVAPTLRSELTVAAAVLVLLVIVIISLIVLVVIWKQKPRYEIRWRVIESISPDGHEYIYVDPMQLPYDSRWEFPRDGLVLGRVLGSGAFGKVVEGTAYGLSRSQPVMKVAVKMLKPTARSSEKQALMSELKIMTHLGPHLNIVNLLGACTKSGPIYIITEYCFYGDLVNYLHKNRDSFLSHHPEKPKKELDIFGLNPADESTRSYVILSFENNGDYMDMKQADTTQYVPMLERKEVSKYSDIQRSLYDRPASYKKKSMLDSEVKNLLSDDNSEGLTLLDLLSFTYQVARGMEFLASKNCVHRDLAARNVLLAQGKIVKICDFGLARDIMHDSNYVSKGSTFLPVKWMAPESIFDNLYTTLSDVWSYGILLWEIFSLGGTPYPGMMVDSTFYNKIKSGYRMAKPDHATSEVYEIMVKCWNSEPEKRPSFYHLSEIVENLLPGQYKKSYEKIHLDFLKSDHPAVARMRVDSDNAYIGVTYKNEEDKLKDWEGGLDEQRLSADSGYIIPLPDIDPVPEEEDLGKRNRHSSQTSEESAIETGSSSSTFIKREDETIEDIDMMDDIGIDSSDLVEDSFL

In assay [6] the target is human recombinant PDGFRβ (human) (UniProt P09619). The assay is described as above.
The target of assay [7] is VEGFR1 (Homo sapiens) (UniProt P17948). Briefly: SPR; BIAcore 3000, 25 °C, CM5 chip; receptor immobilised by amine coupling (~200-500 R.U.); ligand injected at 40, 20 and 10 nM in HBS-EP pH 7.4 (10 mM HEPES, 3 mM EDTA, 150 mM NaCl, 0.005% TWEEN-20); angiopoietin-4 reference cell subtracted; global 1:1 Langmuir fit; χ^2-to-Rmax < 1.0 taken as a true interaction.
Target sequence in this assay (P17948 27-758): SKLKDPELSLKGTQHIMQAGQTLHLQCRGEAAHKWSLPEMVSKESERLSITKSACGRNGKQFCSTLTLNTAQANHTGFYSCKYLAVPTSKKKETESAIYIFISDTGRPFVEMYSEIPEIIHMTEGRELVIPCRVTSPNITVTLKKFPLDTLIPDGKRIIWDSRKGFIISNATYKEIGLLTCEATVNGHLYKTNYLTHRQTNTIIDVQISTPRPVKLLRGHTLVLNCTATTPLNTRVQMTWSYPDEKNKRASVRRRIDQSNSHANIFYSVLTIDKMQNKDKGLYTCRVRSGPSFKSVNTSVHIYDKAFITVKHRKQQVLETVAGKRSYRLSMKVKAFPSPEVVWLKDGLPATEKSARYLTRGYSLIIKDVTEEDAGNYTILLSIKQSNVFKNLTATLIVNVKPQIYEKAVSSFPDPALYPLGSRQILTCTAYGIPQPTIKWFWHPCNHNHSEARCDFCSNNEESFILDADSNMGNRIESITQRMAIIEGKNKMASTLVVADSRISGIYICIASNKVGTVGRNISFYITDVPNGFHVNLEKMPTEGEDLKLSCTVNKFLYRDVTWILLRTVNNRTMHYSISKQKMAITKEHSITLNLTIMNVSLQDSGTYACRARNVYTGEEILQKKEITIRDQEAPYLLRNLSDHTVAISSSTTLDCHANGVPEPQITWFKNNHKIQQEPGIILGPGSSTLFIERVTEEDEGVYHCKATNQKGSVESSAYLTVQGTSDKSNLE
For assay [8], the target named is VEGFR2 (Homo sapiens) (UniProt P35968). The description is as above.
Target sequence in this assay (P35968 20-764): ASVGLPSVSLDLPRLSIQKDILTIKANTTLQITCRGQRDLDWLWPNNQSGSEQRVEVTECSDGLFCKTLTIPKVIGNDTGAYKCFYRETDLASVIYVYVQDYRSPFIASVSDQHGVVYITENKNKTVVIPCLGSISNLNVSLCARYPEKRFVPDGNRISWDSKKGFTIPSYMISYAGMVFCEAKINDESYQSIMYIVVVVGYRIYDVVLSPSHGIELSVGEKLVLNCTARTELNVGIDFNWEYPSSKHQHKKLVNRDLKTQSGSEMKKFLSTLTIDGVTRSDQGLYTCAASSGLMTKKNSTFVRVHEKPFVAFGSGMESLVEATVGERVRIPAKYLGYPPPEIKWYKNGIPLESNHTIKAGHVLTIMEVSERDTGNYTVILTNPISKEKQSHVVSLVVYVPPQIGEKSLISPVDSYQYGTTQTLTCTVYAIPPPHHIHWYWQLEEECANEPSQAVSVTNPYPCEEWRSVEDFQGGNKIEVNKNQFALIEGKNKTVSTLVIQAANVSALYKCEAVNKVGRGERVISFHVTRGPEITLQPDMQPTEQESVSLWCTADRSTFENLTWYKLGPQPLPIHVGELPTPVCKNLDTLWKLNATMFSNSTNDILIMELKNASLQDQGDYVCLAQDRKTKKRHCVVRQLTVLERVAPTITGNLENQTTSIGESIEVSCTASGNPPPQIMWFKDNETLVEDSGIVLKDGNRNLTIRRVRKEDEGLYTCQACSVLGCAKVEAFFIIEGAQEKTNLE
In assay [9] the target is VEGFR1 (Homo sapiens) (UniProt P17948). Briefly: SPR; BIAcore 3000, 25 °C, CM5 chip; receptor immobilised by amine coupling (~200-500 R.U.); ligand injected at 10, 20 and 40 nM, 30 uL/min, 10 min dissociation; HBS-EP pH 7.4 (10 mM HEPES, 3 mM EDTA, 150 mM NaCl, 0.005% TWEEN-20); angiopoietin-4 reference cell subtracted; global 1:1 Langmuir fit; χ2-to-Rmax > 1.0 or negative association curves taken as no true interaction.
Target sequence in this assay (P17948 27-758): as the sequence (P17948 27-758) above

The target in assay [10] is VEGFR2 (Homo sapiens) (UniProt P35968). The assay is described as above.
Target sequence in this assay (P35968 20-764): as the sequence (P35968 20-764) above

Read-outs that look alike come from different tables or passages of the source.

By Kd is commonly meant the equilibrium constant for the complex coming apart. The koff is the first-order rate constant of dissociation. Broadly, the kon is the second-order rate constant of association.

Sequence of human recombinant PDGFRβ (human) (P09619 33-1106): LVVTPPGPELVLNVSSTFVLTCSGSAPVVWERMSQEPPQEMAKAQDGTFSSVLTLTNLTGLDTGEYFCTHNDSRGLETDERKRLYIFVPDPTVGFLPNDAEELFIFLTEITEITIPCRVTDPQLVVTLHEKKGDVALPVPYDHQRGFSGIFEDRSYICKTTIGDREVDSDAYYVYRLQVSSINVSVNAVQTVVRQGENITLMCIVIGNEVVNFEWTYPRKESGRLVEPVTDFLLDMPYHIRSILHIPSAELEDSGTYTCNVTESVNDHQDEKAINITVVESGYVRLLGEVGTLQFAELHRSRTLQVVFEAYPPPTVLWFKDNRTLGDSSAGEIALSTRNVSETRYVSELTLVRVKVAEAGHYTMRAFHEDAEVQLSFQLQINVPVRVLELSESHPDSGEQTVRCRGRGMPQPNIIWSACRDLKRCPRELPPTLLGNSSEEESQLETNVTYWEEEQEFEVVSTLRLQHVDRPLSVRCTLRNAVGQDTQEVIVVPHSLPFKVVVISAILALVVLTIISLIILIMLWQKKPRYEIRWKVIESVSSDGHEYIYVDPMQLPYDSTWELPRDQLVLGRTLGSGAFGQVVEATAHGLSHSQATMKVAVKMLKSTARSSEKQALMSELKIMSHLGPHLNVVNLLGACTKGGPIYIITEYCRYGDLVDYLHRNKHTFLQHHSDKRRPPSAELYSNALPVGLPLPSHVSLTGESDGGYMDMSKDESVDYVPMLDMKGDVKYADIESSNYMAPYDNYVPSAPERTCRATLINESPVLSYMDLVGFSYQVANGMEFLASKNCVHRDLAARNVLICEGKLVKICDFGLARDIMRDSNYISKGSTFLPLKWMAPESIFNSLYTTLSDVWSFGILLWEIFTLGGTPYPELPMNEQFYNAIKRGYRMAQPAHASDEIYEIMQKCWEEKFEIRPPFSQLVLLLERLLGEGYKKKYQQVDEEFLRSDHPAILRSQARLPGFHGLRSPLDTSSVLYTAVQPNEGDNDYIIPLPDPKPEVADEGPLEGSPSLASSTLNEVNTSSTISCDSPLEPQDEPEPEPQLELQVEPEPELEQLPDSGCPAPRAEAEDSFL
Sequence of VEGF-A (P15692 whole entry): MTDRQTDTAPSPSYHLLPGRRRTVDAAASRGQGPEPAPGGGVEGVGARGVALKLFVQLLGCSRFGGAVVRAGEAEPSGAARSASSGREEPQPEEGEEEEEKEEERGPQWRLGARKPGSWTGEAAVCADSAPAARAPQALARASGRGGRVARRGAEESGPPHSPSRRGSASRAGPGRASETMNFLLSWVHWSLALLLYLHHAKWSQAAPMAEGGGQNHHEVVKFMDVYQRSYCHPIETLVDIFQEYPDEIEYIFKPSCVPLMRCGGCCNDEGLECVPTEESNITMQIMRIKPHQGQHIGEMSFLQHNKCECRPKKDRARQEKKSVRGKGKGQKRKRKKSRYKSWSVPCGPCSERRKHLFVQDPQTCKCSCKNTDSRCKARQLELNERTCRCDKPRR

Take PDGF-AA (from UniProt P04085): the Kd in assay [1] was 134 nM.

Take PDGF-BB (from UniProt P01127): the dissociation constant (Kd) in assay [2] is 150 nM.

Turning to VEGF-A (from UniProt P15692), the Kd in assay [3] is 0.0075 nM; in assay [4], 0.052 nM.

Regarding “human recombinant PDGF-AA (from UniProt P04085 87-211) (ligand)”, in [5], the koff came out at 0.00045 s⁻¹ and the association rate constant (kon) was found to be 680 M⁻¹ s⁻¹.

With “human recombinant PDGF-AB (from UniProt P04085 87-211; P01127 82-190) (ligand)”, in [5], the off-rate constant (koff) turned out to be 0.001 s⁻¹ and the kon is 1200 M⁻¹ s⁻¹. Besides, in assay [6], the dissociation rate constant (koff) is 0.0029 s⁻¹ and the kon came to 1300 M⁻¹ s⁻¹.

Turning to “human recombinant VEGFA (from UniProt P15692 1-395) (ligand)”, the Kd in assay [7] amounted to 0.001 nM; in assay [8], 0.0098 nM. Further, the kon amounted to 1e+06 M⁻¹ s⁻¹ in [8], 400000 M⁻¹ s⁻¹ in assay [9], 970000 M⁻¹ s⁻¹ in [10] and 12000 M⁻¹ s⁻¹ in assay [6]. The values for the koff in assay [9], in assay [10] and in assay [6] were 4e-07 s⁻¹, 9.5e-06 s⁻¹ and 4e-06 s⁻¹, respectively.
